Reference: the domain aggregation screens of Martell et al. (2025)

Assay: soluble fraction after stress (log2 fold change); higher = more stays soluble; pooled small domains, quantitative proteomics
Details: stress: pH 4
Outline: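 Following acid stress at pH 4, the amount of each small protein domain still soluble was measured in pooled custom libraries by high-throughput quantitative proteomics. Its fold change, on a log2 scale, is higher when more of the domain stayed soluble. This fold change is taken as a measure of aggregation propensity.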

| Sequence | soluble fraction (log2) |
| --- | --- |
| HMRVVPEILERAVAVFEALGVDRLPSSTLADRLGYDSPEALADVLRPLGVRPKKYRDGKSTARGYLAADLG | -0.284 |
| HMYEGLILINKYDSLVSAKLETNKIKSLGLFFEDMEEKIAVFSGPFKNNDINLKLDFLIRNGYLDAKIY | -1.53 |
| HMNQILDFTREVKNLPEQDKIKIVEALWSIIYSNKDADIYETNLMRRLAGLLYIDNKTMGDIKEKIKQNL | -0.421 |
| HMIYGNGVTDLKDLANGATIIIPADDSNETRALFLLQQEGLIKLPDDADAAKGVSTLDIVDGGGWVTSM | -0.381 |
| HMDIGTRQRIIAAAMELFRQKGMDGMSMRELAERAGVNKGLLHYYFTTKEAIFREVFVHQVEM | -0.0208 |
| HMKKDRKKMLKEGIVLFEKILRGMELSPTSEPLKKVLTSFNIQNKEDLYVKLGAGVISSEEVIKELKKK | ≥ 0.43 |
| HMLSAQEIPVEDIATRDFVLAEDVVSAKKVLLLPKGVDLSWFGSAKKRLVQRLKSEGVTHIRVFA | 0.008 |
| HMNQNIYVPKLEGLQIEEASSILKSKGLNIEITDSIFRKDAVPGAIIEQTPKPNSRVKTGRNIYVSIYSK | -0.199 |
| HMEQQSIYLENRERMTINQVIDVDAFDEETLWANLKEGAVEISGSGLHIEKLDLAEGVLIVSGIIRAFAYV | -0.423 |
| HMGDDYFTILGIERDATTDEIRSAYRRLSKKIHPDAQGSSALFRQVQEAYETLIDPSSRARYVAELNASQG | -0.0836 |
| HMKNHSTFKSVLSNIEFPINERISGHAIQNPILGLIKADHPNFSSDQYIAISELNFYREKYISNYLLTEI | -1.6 |
| HMEKEFLFNGGKVVMNYEADRIQIMHDTKPGQDVITLMKKNGFKWSPFNKAWQRQITANAIYTTKHLINQ | -0.6 |
| HMDSVAKSFLAEIERFLETAGLEPTTLGKQALGDPSFVFDLRKGRSPSTRTIGKLRVWMQQQNALS | -1.24 |
| HMDIPDIGHNVRIEVDGHNGKTTHEGIILHPAAPNHITIKLANGYNASYKLEEIINIEILGELGDDSKI | -0.863 |
| HMVSLTGEWRPSKDALDILITKGGINPNFIDDAVPEFILYWRDRGDVSNTWDSKFIQHVRRQWQFYTGI | -1.66 |
| HMEHTPYLTEREADVVRLLVSGLDTAQIAQRLGIKTATVTAHKKHIFLKIGVRNTTQLVAWALIR | -0.557 |
| HMSSVDLLSERERQVLARISRGMSNEEIAAELAITPRTVRNHLANIYGKIDVHSRAEAVVWARERGIT | -0.152 |
| HMKGALQIAIEEGFNWNLDKKYWNIVQSTVIAKRLGLKTTSGLKEAIEGMGGEYKRTKKARGYLVPTFKD | 0.354 |
| HMEQPPVPSVSITAALGSAVARRLAPHGFQKMPDLVDAYRAGKLAQISGIGGTTLDLIREWLTANARQQ | -0.189 |
| HMRQQLAEILQKAVDNLPEAQRLVWLLRDKSDMTFKEIAEDLQLTEANVRVLLHRARLKLLAVINQYEE | -0.115 |
| HMQNGNYVVQRQDSLWSIAARISGQTHQPIGEVMNHIKALNEHAFVGGNVNRLRTGTNLNLG | 0.125 |
| HMQVAPQVERLLRVMGNETLSLSDIMGRMGLSDKKNFRESYLVPALRSAVIEMTIPDKPNSSLQKYRRIHE | -0.125 |
| HMSTPERQEVLDILKRQGEMTPLQIAGQISRTSKSVSNILSKLKREGFVANGAKYGSWVSTES | 0.0778 |
| HMPRQREVPDVSGWTEQHAKVYLEALGYRVKVIYLEVSSFDKGLVQETSPAKGSKVEEGDTIDLRVSNQE | 0.299 |
| HMTMVLPDAARDKLKAIGLSIEHVEPSPVKDIFTVISREGVSYVSKDGDYIFTGSLFHVKGKDVVNTTEQA | -0.275 |

| Sequence | soluble fraction (log2) |
| --- | --- |
| HMDDSVTFSEFVRMVDSGQVESVRITGNEVTGSDSTGNTFRTFVPPQYEGLVNRLVERDVAVTAEE | -0.284 |
| HMEDPFATLGVHREASLDEIKRAYRRLAMFWHPDRNPEAVAGTEFKRVHAAYELLLDPQRLAEWQQAQAT | -0.424 |
| HMGLQEADKQDRIARMKELISFLNEAAKAYYQEGREIVSNLEYDKAYDALLSLEKESGVVLSGSPSQNVG | -0.659 |
| HMSIVVPDLRGKTLEEARAILKEADLDFEINDSTFSKTARPGTIRDVVPSPGSRVKAGRILFISINGF | -0.0618 |
| HMSVVKPIYIGMMTSEVEAIMGKPFEVITNNNSKNNQLWIYKYQDKRSVMLTFTNYKLIKIE | -0.0356 |
| HMVDIGQSIRVELIREGKDSHQAVGYLRDGSMVVVNHGRKLIGSTVEVEITSIVPSSAGKVIFAEYLE | -1.05 |
| HMNPEDLSGVRKAAILLLTMDDEVTKDVMKGLDEEEIEAIGKEITNLKLIPDHVVHRVQEEFMTKVSK | -0.375 |
| HMAPRIVTIQIPVDKIRDVIGPGGKVIRSIIERTGVKIDVEDDGRVNVASADGDSAQRAIAIIQELTAT | -0.0595 |
| HMYEDNERSLVPIVQNFLKEKKILLSNQSINLIVQRSGGDRINLYNELQKIESFSKNQKKIDIGDIIKLTN | 0.169 |
| HMKGHQASTTWISERVKDIIKEDPTLGARKLQKRLEIHYNIELSYFKVWSGKNLQWMIFMVL | 0.00439 |
| HMGNKDAQLVHLAKMNEIQIELMKTGRGYMVTDQNVYNLAKKMGENMGFKHPDLFLTDPAKV | -0.0687 |
| HMTALISGNKAMQMLELSRHSFEKIVKDGLLSIVHEGDKKYYEIGEVEAFMGSDTYKELVNGV | -0.314 |
| HMPSARELLATNIVRLRKEKGWSQEDLALEAGLHRTFVAHVERHARNISLDNIERLANALQVNVHILLL | -1.26 |
| HMTVKRNILQELLKTAFKHPEDFRPSKTFYGETGIGQKRFWALYYGHKAVTQKEYYAVADYLG | 0.202 |
| HMSMISLPNFVGKDIETVKAWAKENGITLIINKVEDSAKKDTVISQNPTNSDYSKILKGSAFTVNIAKE | 0.126 |
| HMIPDLPAIGENLYRERKRQQLSMAELAAASGISKAMLSQIEADKVNPTIATLWKIAHALHVDLESLISGG | -0.0815 |
| HMATVPNVVGLSEEKAKSRLANNGLNVSVTTEEVSDKSKDGIVSSQTSEGDTVKQGATITITVGKYVEK | -0.0691 |
| HMVEDPADNQKAADAVIKKISEIGEVTESSENLIKEARASYDALTDNQKELVTNYDVLVQAEAQLENIKD | -0.703 |
| HMSAEVEVPDVVGRQVALAVQLIETKKLRVNVAETYDAKVPPGQVISQSPEAGMKVKEERVITIYVSR | 0.153 |
| HMKILALETSAKAVSAAVSENGRILASGYQDTGLTHSRTLMPIVEHILKNTDLKLSDMDAIAVAVGPG | 0.22 |
| HMQISDEAALLAIVDRVIADNQGPLANYLGGKQSLLGWFVGQVMRATRGQAIPAVVNRLVGERLAAQREE | -0.278 |
| HMFEKIDINFADIHQLKGLPLNSEQINSIIEYRNQNGFIENIYDLKNVNGISIDKVHELKSYIFIIDV | -1.96 |
| HMYTVKELSRLTGLTPRTLRYYDAIGLLSPARNRDNDYRLYGGAEVDRLQEILLYREMGLPLEEIGRILD | -0.491 |
| HMNKEQIASNIAEARKRSGLNQSELARRLGIRPQSVQQWEKGTATPKLDRLTAIAQVLGVSLESLTG | 0.22 |
| HMHKTEIKIPSREDILAVLRQAQAPLTREQVFEHLKLTEDQIPIIEKRLNAMERDGQLMPNRKGMLLLSTK | 0.00265 |

| Sequence | soluble fraction (log2) |
| --- | --- |
| HMKQETLNEIGTKIRKLRESKNLSIQEFADKLEMEYNNVIRIEKGRTNFTIGTLVKIANSLEVNLKDI | -1.01 |
| HMDYLSEFITDKVVRADGYSIRKGELSNEFKQWFITNVGTKNPKPKEIHDYMDRKFGKNKNGIWKNVKIKL | -0.0984 |
| HMNKITIEEAKSIALKHSNLDESQVSFIRSEYDFDNGIEKYEIEFYYNNNKYEYEINAKTGDIISYDYDI | -0.528 |
| HMTSSSGTITADWLNVRSGAGTNFSRLGSIAGGTRLTVISVHGEWYKITASFEGEIRTGYVHSQYVQMDGE | -1.59 |
| HMPGTPADQVAELQTKVGTETKTGDMITQDDVKLLQTALDPLAKMNDRIQAAKILESKGIVTSDGNLRT | 0.0934 |
| HMSIMNLSEKIVVLRKSNGMSQEELAEKLYVSRQAVSRWEMGTAVPDSTNILQLGKLFHVTTDYLLNDEYE | -0.232 |
| HMEVDWLEVEKVIVSSSYSWMENSPKVKLLQEYIGVTADGIYGLGTWGAHRTHAVDLGFINLSYPIP | -1.69 |
| HMESYNIVEQVLTKKILSKGNTLAKLSNEFDGLVMLVIRGDEFIIPNGETLLFEKDILVINNGP | -1.2 |
| HMASAEDDLTRRARKLLTTSSMLKTLQPDTGERLQWLPQVVRLLAEGVEAPRIVVLIRRAMESG | -0.00608 |
| HMNKLIIDAAEDKIFFMIMNNDISYNISHENTKINFEKLIILINDFLSSKKLKINDITGLYV | -0.233 |
| HMRGGLATLTPRERQVLALMAEGRSNAGIAAELVVSGGAVEKHVASIFTKLGLPPDESDNRRVLAVLRHLG | -0.186 |
| HMGVEVPRGDGSTVVRVRAGSSLADFAERIGADPAALITVLFRMGEMATVNQSLDEDTFKLLGAELGYDVQ | -0.721 |
| HMGVIGADIRALRVSRGWTLSDLAEALDRSVGWLSQVERDVSEPALADIRRIAGIFDLPVSFFFSD | -1.64 |
| HMVRDPYELLEVPREATPDEIKSAFRKLAARHHPDRNPDDPGAQERFKEINAAYQLLSDPQKRAMFDRFGA | 0.331 |
| HMTGLSFEEKDLLGNALKLLDETERRIVILHATSGLKHREIAKQLDIPLPTVLSKYTRAIKKLKKHME | -0.144 |
| HMFYQLTENQRRILSSLEQNPRVSAAHLAEEIGISSRKVENNLKKLKEIGLLQRHGSPRKGYWSINQGW | 0.15 |
| HMVNINEVEVSRDLAHAKVFVTFVGDRTDEINTQALKVLNAAQGFLRSRIASNNHMRTTPRIHF | -0.214 |
| HMNEYHRNISDEEFVRDIKETAIKLKKETLTGVEYSQNGKYHASTIIHRFGSWKKALELAELNTK | 0.257 |
| HMDNLATRILKELNNNDGFLPLSDKSQPEAIYQAFGISKKSYKTAIGTLYKKRLITISENGIQLTD | -0.2 |
| HMQPKKLNMYYDYVRQLLESHPYLSAAQIEDRLKEEFTELPMVHSKTVFNFVENIRLQHGINKHA | 0.0853 |
| HMDLAENWKDDADITLAEYNAIRSRYKPGKLHRDTEFMIARDMLIRPETVLAIAHSRFSNVHTHPV | -0.771 |
| HMGEAYVVPNVKNKTLGEAQLALHNQKLEGLVVDSSYVKGLPDGMILDQNPAGGARVKEGRTIYLTITTS | -0.146 |
| HMLEQLTPRELKVLQALAQGRQNKEIAAQLVISERTVKFHVSAILSKLNVGNRTEAVTVAAQRGLISL | -0.729 |
| HMPSTKDGIKEFLSSGAMKGIGRKTASAIVSRFGIDTLKIIEQEPQRLTEVSGIGKKTAQRIAEAFGKH | 0.201 |
| HMIMGTIEKRGPFSFRIGVQVRLPDGSWEWIRDTIHVSPDLSARAARKQAEMALARLEADVYEGKRKPD | -0.0141 |
